In patent publication US10801046B2, “Methods and materials for biosynthesizing multifunctional, multivariate molecules via carbon chain modification” (INVISTA NORTH AMERICA S.A.R.L., priority 2016, dated 2020):

B1: SEQ ID NO: 73: Thalassospira xiamenensis M-5 thioesterase (protein)
chain: MTIQWDEIAKPALPANCGWRGTYRVRYSEIGDNGLAMLPALADYMQDAAGWGARILKLAYDDTVDKGMAWVLARMVIHVRRYPGNGEDIIVETWPSGVARRVATRDFRLIDSSGDVIAVAQSFWVMFDLLERRAASWPDWIEERLPKPPGPKLIEPPFRPPFTTDPLPEIDSIKARPSDLDLYGHVNNVRLMQWVLGATGADSKPDFHPESIDIQFRTECRVQERVTVRQKDGFAAITRDGDGVDLVRAHVVPKNRTALA
modifications: Thalassospira xiamenensis M-5 = DSM 17429
notes: Thalassospira xiamenensis M-5 thioesterase
B2: SEQ ID NO: 205: Kuraishia capsulata CBS 1993 carboxylate reductase (protein)
chain: MPSLPLPPYRAVFERAEDITRDALPFPPERNQRGIAVPGSVEPGYSAIYRSAATPDFLYDRVSPELDTYYRILKRSFEIFKDEDCVSERPQTGENSWSDKFVPRSYGEVYHDSLNFGSGLKYLLQKNEFRSGTEIPDKDYIVSIFSRNRAKWLVADISCTLFSLPNTALYDTLGPDTSTYILGLTKSPVVVAASDKISKLLDLKEADPAKLKNLIMLVAMDNLEPEVYSDLSRRAYKLNVKLYEWDQVTEAGILFPHEEVPPAPDSIYSLSFTSGTTGPPKGAILLHSGVAAGVAFTSATIDTPKQKAKLLSILPLAHIYERMTMALQLFRGGCLGFPHQPGPEHIVPNLRLFKPNLFSGVPRLFNKFEGVLKAATVHNPNASPAKRALAKRIIEWKMKQQCSKDGERGESILYDKLLNNKLRAALGFDNLYGVVTGSAPISAETIKFLKAALGVSFHQGYGLTETFAGVCVSAGLETDPGSCGVIGIATECRLKDTPELGYTSSDEGGPRGELLLRGSQVFPGYYKNEEETKKALDEDGWYHTGDIARIDSKCRIYVIDRVKNLFKLSQGEYVAPERIENIYLSSCTDFVSQIYVHGDSFSNYLVGIVGVDILGLSAFLKRKHPDLWRQVEGKTPEEILDIISSSRQLKSAILAQMNRNVSSAGLNGYEKLHNLKIGIEPLKVEDEVLTPTLKLKRNNALTKFNTDLKNLYEEGSLIKNEKL
modifications: Kuraishia capsulata CBS 1993
notes: Kuraishia capsulata CBS 1993 carboxylate reductase
B3: SEQ ID NO: 86: Marine sediment metagenome thioesterase (protein)
chain: MTVKALTTRLPAPGPQVRYFSALRSAVLCVFLLAAGFCASTSAESDDGVLLVFGDSLSAAYRMDERDGWVALLQQQLREESTALQVVNGSVSGETTAGGLARLPAMLDAHQPDIVMLELGGNDGLRGLPVTSIRQNLERMIQMSQQAGARVILAGIQIPPNYGPRYTAPFYAQYQELADEYGLVLIPFLLEGIADNPALMQDDGIHPTAAAQPMIVDTVWPVLQGVLTATDRP
modifications: Description of Unknown: Marine sediment metagenome
notes: Marine sediment metagenome thioesterase
B4: SEQ ID NO: 82: Vibrio shilonii AK1 thioesterase (protein)
chain: MIRQLSYFVLIVISLASFHAKAATLLILGDSLSAGYNMRAEQSWPTMLSDELSSGDEPMKVINGSVSGDTTSNGLAKLPGLLKQHSPDYVLIELGANDGLRGFQPSIIKNNLASLIEMSQQAGSKVLLMQIRIPPNYGKRYASMFEGIYPALAQESGVPLLPFFLEQVIIKPEWMMEDGLHPKPEAQPFIAQFVAESMQPHL
modifications: Vibrio shilonii AK1
notes: Vibrio shilonii AK1 thioesterase
B5: SEQ ID NO: 191: Pseudoalteromonas sp. SW0106-04 thioesterase (protein)
chain: MSASILRVFIVLLLVTKPLFAWADNQILVLGDSLSAAYGLKQHQGWVQLLQDTYEQQNTPTTLINASISGETTGGALRRLDAILKEHTPTHVLIELGGNDGLRGFPVTKMKANLHALIDKSREAGAEVALMQIRIPPNYGRRYTELFEQSFVDVAKEKQVTLMPFFVEQVATNGELMQNDNIHPNAEAQPILRDIMKTQISNWLTK
modifications: Pseudoalteromonas sp. SW0106-04
notes: Pseudoalteromonas sp; SW0106-04 thioesterase
B6: SEQ ID NO: 195: Halobacteriovorax marinus thioesterase (protein, listed as Halobacteriovorax marinus)
chain: MKSPVFKKKYQVSISNVNINKRLGLFGLLGYLQDIATLHAEIAGFGLDEMISSNSFWVLVRQEIRMNKFPKWNDEIEIQTWSRTPQGMYAFREFEFFLNDEKVGSCSTAWMILSGDTRRIKKPDFPIEKINPRLDSLLDYCAERIKVLDNFELVNEIKVRISDLDLNMHVNNTKYTQWVLDSIPIELHKSAKLRNYQINFLKEAHLGDEIDIYRASSAKDESAHDTQFKGIRRSDQSTIFYVNIIADT
modifications: Halobacteriovorax marinus (strain ATCC BAA-682 / DSM 15412 / SJ)
notes: Halobacteriovorax marinus thioesterase
B7: SEQ ID NO: 190: Bacteroides finegoldii CL09T03C10 thioesterase (protein)
chain: MSESNKIGTYKFVAEPFHVDFNGRLTMGVLGNHLLNCAGFHASDRGFGIASLNEDNYTWVLSRLAIELDEMPYQYEDFSVQTWVENVYRLFTDRNFAIMNKEGKKIGYARSVWAMISLNTRKPADLLALHGGSIVDYICDEPCPIEKPSRIKVTNTQPLATLTAKYSDIDINGHVNSIRYIEHILDLFPIDLYKTKRIRRFEMAYVAESYFGDELTFFCDEANENEFHVEVKKNGSEVVCRSKVIFE
modifications: Bacteroides finegoldii CL09T03C10
notes: Bacteroides finegoldii CL09T03C10 thioesterase
B8: SEQ ID NO: 189: Sedimenticola thiotaurini thioesterase (protein, listed as Sedimenticola thiotaurini)
chain: MKKLFLLLIFAMSNVPAAEPVILVLGDSLSAAYGIERSRGWVSLLQSRLQQAGYPHRVVNASISGDTTAGGLARLPRALEQFQPDILIIELGGNDGLRGLGNRQTRDHLDQMITLARASHSRPLLLGMMLPPNFGKAFTEKFLQIYRDLAEQRNVPLVPFFLAGVADRPEWMQSDGIHPTAEGQPLMLEHVWEQLQPMLEETSVHSDKSLK
B9: SEQ ID NO: 192: Vibrio mytili thioesterase (protein, listed as Vibrio mytili)
chain: MIRLLSLFLFFSLSTLAHANEKLLVLGDSLSAGYQMPIEKSWPSLLSNALLEHDQDVTVINGSISGDTTGNGLARLPQLLDQHTPDFVILELGANDGLRGFPPKLITANLSKMITMIKNSGAKVFMMQIRVPPNYGKRYSDMFYDIYPKLAEHQQVTLLPFFLEHVVTKPEWMMDDGLHPKPEAQPWIAEFVAQELIKHL
B10: SEQ ID NO: 193: Pseudomonas fluorescens thioesterase (protein, listed as Pseudomonas fluorescens)
chain: MRVWFLSAGLALMCMAQNAAAGTVLIVGDSISAGFGLDTRLGWVSLLEQRLEQEGFDDKVVNASISGDTSAGGQARLPALLAEHKPDLVILELGGNDGLRGMPPTQLQQNLAAMIDSSRQSGAKVLLLGMQLPPNYGKRYTDAFAEVYGKLADDKKIPLVPFFLDGVGGHPDLMQADGLHPAAGAQGKLLENVWPTLKPLL
B11: SEQ ID NO: 194: Pseudomonas stutzeri (strain A1501) thioesterase (protein)
chain: MRRWLKCGALALLCWTQGALAGTVLVVGDSISAAFGLETSQGWVHLLQERLVEGDESWRVVNASISGDTTAGGLARLDPLLEEHTPEVVILELGGNDGLRGQSPVQLKQNLADMIDRSREAGAEVLLLGMRMPPNLGQRYTRAFADAFDSLAQEKSVAYVPFLLEGVGGVAGMMQADGIHPTAEAQSQLLETVWPALEPLL
modifications: Pseudomonas stutzeri (strain A1501)
notes: Pseudomonas stutzeri (strain A1501) thioesterase
B12: SEQ ID NO: 85: Ferrimonas balearica thioesterase (protein)
chain: MVRRSLLILMLCLYQPGAWADQPSILILGDSLSASYGMSEAEGWVKKLQQNLPDAQIINASVSGETSGGGLRRLPGLLQQHQPDWVFVELGGNDGLRGFQPTITENNIEQLITLSKASGAQVLLSEVMVPPNYGRRYAERFQQIYHGLAKEHEVELVPFFMTEIATDPNLMQADGIHPNREAQGRIAAFLLPWFEQAIAE
modifications: Ferrimonas balearica (strain DSM 9799 / CCM 4581 / PAT)
notes: Ferrimonas balearica thioesterase

tested on: heptanedioyl-ACP methyl ester; assay: not given; type: cell-based, Escherichia coli; conditions: 146 thioesterases screened

Molecule	impact on monomethyl heptanedioate production
B1	promising

same assay, conditions: top 150 hits screened in vivo

Molecule	activity toward heptanedioyl-ACP methyl ester in vivo
B1	showed activity toward heptanedioyl-ACP methyl ester

tested on: not listed separately; assay: In vivo carboxylate reductase screening, substrate consumption by LC-MS, heptanedioate; type: cell-based, Escherichia coli; conditions: 541 enzymes screened in vivo
Protocol: To screen carboxylate reductases in vivo, […] T7- pUC expression vectors was co-transformed into T7 Express lysY/Iq with the phosphopantetheinyl transferase sfp from Bacillus subtilis on a T7-pCDF expression vector. Biological duplicates of the resulting strains were incubated in 0.5 mL of terrific broth containing either 1 g/L heptanedioate or 1 g/L monomethyl heptanedioate and supplemented with 0.4 mM IPTG in 96-well deep well plates. The plates were incubated for 30 h at 30° C. in a shaking incubator. The cells were then pelleted, and culture supernatants from the same strains in media containing either heptanedioate or monomethyl heptanedioate were combined. The combined supernatants were analyzed by LC-MS to determine the concentration of heptanedioate and monomethyl heptanedioate. Carboxylate reductase activity on heptanedioate or monomethyl heptanedioate was reflected by consumption of the respective substrate in the medium.

Molecule	substrate preference, heptanedioic acid to 7-oxoheptanoate
B2	preferred acting upon heptanedioic acid to form 7-oxoheptanoate

tested on: heptanedioyl-ACP; assay: not given; type: cell-based, Escherichia coli; conditions: top 150 hits screened in vivo

Molecule	activity toward heptanedioyl-ACP in vivo
B3	displayed considerable activity toward heptanedioyl-ACP
B4	displayed considerable activity toward heptanedioyl-ACP
B5	displayed considerable activity toward heptanedioyl-ACP
B1	displayed considerable activity toward heptanedioyl-ACP
B6	displayed considerable activity toward heptanedioyl-ACP
B7	displayed considerable activity toward heptanedioyl-ACP
B8	displayed considerable activity toward heptanedioyl-ACP
B9	displayed considerable activity toward heptanedioyl-ACP
B10	displayed considerable activity toward heptanedioyl-ACP
B11	displayed considerable activity toward heptanedioyl-ACP
B12	displayed considerable activity toward heptanedioyl-ACP
